Measured values as given in patent US20010055591A1 (WISYS TECHNOLOGY FOUNDATION, published 2001).
Changes are numbered by the printed parent chain. Names may count otherwise. Each block holds one binder with its values, some of them ahead of it.

Experiments:
[1] = biological target: T1, thrombin (free thrombin) (human, UniProt P00734 328-622); test: ratio of κ2 with heparin to κ2 without heparin
Protocol: (§1) Serine Protease Inhibition Assays. The rates of inhibition of the serine proteases thrombin, factor Xa and APC in the presence and absence of heparin were measured using discontinuous assays under pseudo-first order rate conditions as described previously (Phillips et al., 1994; Rezaie et al., 1995). Protein was diluted in TBS buffer containing 0.1 mg/ml BSA, 0.1% PEG 8000, and 0.01% azide to a final reaction volume of 50 μl. […] Substrates used were Spectrozyme TH (SpTH) for thrombin and trypsin, PCA (SpPCA) for APC, and FXa (SpFXa) for Factor Xa (American Diagnostica, Greenwich, Conn.). Absorbances were determined using a SpectraMax Plus plate reader (Molecular Devices, Sunnyvale, Calif.). Absorbance is directly related to residual protease activity. In assays containing heparin, 1 mg/ml Polybrene was added to the substrate to block further heparin binding during substrate development. For heparin template curve data, varying concentrations (0-1000 μg/ml) of unfractionated heparin were added and proteins were diluted in HNPN buffer. For remaining heparin assays, the resulting optimal heparin concentration (5 μg/ml) was used. […] TM was either purified rabbit TM (RTM) or recombinant 4-6 TM (provided by Dr. Alireza Rezaie). Second-order rate constants of thrombin inhibition were determined using the following equation: […]
(§2) Inhibition in the presence of heparin. Thrombin inhibition is accelerated (300- to 1000-fold) in the presence of heparin (Olson et al., 1992). […] Changes in heparin binding domains may alter the concentration of heparin required for the fastest rate of thrombin inhibition.

[2] = biological target: T2, thrombin bound to 4-6 TM (recombinant EGF repeats 4-6 of thrombomodulin) (human, UniProt P00734 328-622; P07204 363-483); test: ratio of κ2 with 4-6 TM to κ2 on free thrombin
Protocol: as §1, with “Protein” for “Serine Protease Inhibition Assays. The rates of inhibition of the serine proteases thrombin, factor Xa and APC in the presence and absence of heparin were measured using discontinuous assays under pseudo-first order rate conditions as described previously (Phillips et al., 1994; Rezaie et al., 1995). Protein”
(§3) Inhibition in the presence of TM.

[3] = biological target: T3, trypsin; test: discontinuous trypsin inhibition assay, chromogenic substrate SpTH
T3 construct: The source of the trypsin is doubtful, so see recheck
Protocol: as §1
Trypsin inhibition assays were performed to examine the overall activity of each mutant protein.

[4] = biological target: T1, thrombin (free thrombin); test: discontinuous thrombin inhibition assay, chromogenic substrate; no TM
Protocol: as §1, §3

[5] = biological target: T4, Factor Xa (human, UniProt P00742 41-179; P00742 235-488, limits assumed); test: discontinuous Factor Xa inhibition assay, chromogenic substrate SpFXa
T4 construct: also called FXa
T4 sequence (P00742 41-179 limits assumed, form in doubt, chain 1 of 2): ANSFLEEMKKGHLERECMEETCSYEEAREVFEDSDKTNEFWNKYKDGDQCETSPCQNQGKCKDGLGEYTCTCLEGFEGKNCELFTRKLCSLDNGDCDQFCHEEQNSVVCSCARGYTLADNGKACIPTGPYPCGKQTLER
T4 sequence (P00742 235-488 limits assumed, form in doubt, chain 2 of 2): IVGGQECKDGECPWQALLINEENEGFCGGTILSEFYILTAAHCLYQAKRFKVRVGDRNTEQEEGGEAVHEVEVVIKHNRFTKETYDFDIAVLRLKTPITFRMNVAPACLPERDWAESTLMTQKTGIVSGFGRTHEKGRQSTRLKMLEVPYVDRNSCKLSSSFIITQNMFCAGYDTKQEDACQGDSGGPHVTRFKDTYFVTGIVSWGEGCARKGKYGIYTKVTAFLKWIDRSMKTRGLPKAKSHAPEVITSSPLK
Protocol: as §1

[6] = biological target: T1, thrombin (free thrombin); test: discontinuous thrombin inhibition assay, chromogenic substrate; no heparin
Protocol: as §1, §2

[7] = biological target: T1, thrombin (free thrombin); test: discontinuous thrombin inhibition assay, chromogenic substrate; with 5 µg/ml heparin
Protocol: as §1, §2

[8] = biological target: T2, thrombin bound to 4-6 TM (recombinant …); test: discontinuous thrombin inhibition assay, chromogenic substrate; thrombin with 4-6 TM
Protocol: as §1, §3

[9] = biological target: thrombin bound to rabbit thrombomodulin (RTM) (human; rabbit, UniProt P00734 328-622; Q8HZ48 21-576); test: ratio of κ2 with RTM to κ2 on free thrombin
Protocol: as §1

[10] = biological target: T2, thrombin bound to 4-6 TM (recombinant …); test: ratio of κ2 with 4-6 TM to κ2 on free thrombin; remark: listed apart in the source

Ratio (+/-) of κ2 with and without heparin [1]: 263 fold | second-order rate constant (κ2) of inhibition [3]: 10000 M⁻¹ s⁻¹ | second-order rate constant (κ2) of inhibition [4]: 2000 M⁻¹ s⁻¹ | second-order rate constant (κ2) of inhibition [5]: 260 M⁻¹ s⁻¹ | second-order rate constant (κ2) of inhibition [6]: 4800 M⁻¹ s⁻¹ | second-order rate constant (κ2) of inhibition [7]: 1.3e+06 M⁻¹ s⁻¹ | second-order rate constant (κ2) of inhibition [8]: 1200 M⁻¹ s⁻¹
B1: AT-P3R (antithrombin with the PCI reactive site loop and an arginine at P3) (other)
chain: HGSPVDICTAKPRDIPMNPMCIYRSPEKKATEDEGSEQKIPEATNRRVWELSKANSRFATTFYQHLADSKNDNDNIFLSPLSISTAFAMTKLGACNDTLQQLMEVFKFDTISEKTSDQIHFFFAKLNCRLYRKANKSSKLVSANRLFGDKSLTFNETYQDISELVYGAKLQPLDFKENAEQSRAAINKWVSNKTEGRITDVIPSEAINELTVLVLVNTIYFKGLWKSKFSPENTRKELFYKADGESCSASMMYQEGKFRYRRVAEGTQVLELPFKGDDITMVLILPKPEKSLAKVEKELTPEVLQEWLDELEEMMLVVHMPRFRIEDGFSLKEQLQDMGLVDLFSPEKSKLPGIVAEGRDDLYVSDAFHKAFLEVNEEGSEAAASTAVVIRFRSARPNRVTFKANRPFLVFIREVPLNTIIFMGRVANPCVK
notes: I derived them from P1′ = serine 394 of mature antithrombin
Ratio (+/-) of κ2 with and without 4-6 TM [2]: 0.6 fold

Ratio (+/-) of κ2 with and without heparin [1]: 34 fold | second-order rate constant (κ2) of inhibition [3]: 9500 M⁻¹ s⁻¹ | second-order rate constant (κ2) of inhibition [4]: 5500 M⁻¹ s⁻¹ | second-order rate constant (κ2) of inhibition [5]: 1000 M⁻¹ s⁻¹ | second-order rate constant (κ2) of inhibition [6]: 5300 M⁻¹ s⁻¹ | second-order rate constant (κ2) of inhibition [7]: 180000 M⁻¹ s⁻¹ | second-order rate constant (κ2) of inhibition [8]: 20000 M⁻¹ s⁻¹
B2: AT-pos (antithrombin H-helix mutant D309K, E310K, E312K, E313K) (other, Homo sapiens, UniProt P01008 33-464, looked up)
chain: B1 chain with D309K, E310K, E312K, E313K, R391A, F392G, A395L, R396N
notes: mature; The residue numbers appear to count on mature antithrombin; also called H-helix mutant Poly-K
Ratio to no TM (RTM) [9]: 90.7 fold | Ratio (+/-) of κ2 with and without 4-6 TM [2]: 3.7 fold | Ratio to no TM (4-6 TM) [10]: 3 fold

Ratio (+/-) of κ2 with and without heparin [1]: 210 fold | second-order rate constant (κ2) of inhibition [3]: 6100 M⁻¹ s⁻¹ | second-order rate constant (κ2) of inhibition [4]: 3400 M⁻¹ s⁻¹ | second-order rate constant (κ2) of inhibition [6]: 3000 M⁻¹ s⁻¹ | second-order rate constant (κ2) of inhibition [7]: 630000 M⁻¹ s⁻¹ | second-order rate constant (κ2) of inhibition [8]: 2500 M⁻¹ s⁻¹
B3: AT-rsl (antithrombin with the reactive site loop sequence of PCI) (other, Homo sapiens, UniProt P01008 33-464, looked up)
chain: B1 chain with R391T
notes: mature; I derived them from P1′ = serine 394 of mature antithrombin; also called AT-rs1; Reactive site loop mutant
Ratio (+/-) of κ2 with and without 4-6 TM [2]: 0.7 fold
